The values below come from article PMC13069688.

For data set [1], the system named is LacI-Halo WT (Escherichia coli). Put plainly: PBM real-time kinetics (kd/ka). The settings on record: PBM: imaging buffer (Na+ + K+ about 30 mM; composition and pH not in the material), EMSA: 1 nM DNA, 0-500 nM LacI (monomer), 1x imaging buffer with 20, 100 or …. (In general: A gel shift assay detects complexes by their altered migration in electrophoresis.)
In data set [2] the test system is V52A-LacI-Halo V52A (Escherichia coli). The data set can be described thus: PBM real-time kinetics (kd/ka). The settings on record: PBM: imaging buffer (Na+ + K+ about 30 mM; composition and pH not in the material), EMSA: 1 nM DNA, 0-500 nM LacI (monomer), 1x imaging buffer with 20, 100 or ….
In data set [3] the test system is Q55N-LacI-Halo Q55N (Escherichia coli). The data set can be described thus: PBM real-time kinetics (kd/ka). Particulars: PBM: imaging buffer (Na+ + K+ about 30 mM; composition and pH not in the material), EMSA: 1 nM DNA, 0-500 nM LacI (monomer), 1x imaging buffer with 20, 100 or ….
For data set [4], the system named is LacI-Halo WT (Escherichia coli). The data set can be described thus: EMSA. The settings on record: NaCl titration; Methods list 20, 100, 200 mM; Kd values only in figure; PBM: imaging buffer (Na+ + K+ about 30 mM; composition and pH not in the material); EMSA: 1 nM DNA, 0-500 nM LacI (monomer), 1x imaging buffer with 20, 100 or ….
In data set [5] the test system is Q55N-LacI-Halo Q55N (Escherichia coli). Put plainly: EMSA. The settings on record: NaCl titration; Methods list 20, 100, 200 mM; Kd values only in figure; PBM: imaging buffer (Na+ + K+ about 30 mM; composition and pH not in the material); EMSA: 1 nM DNA, 0-500 nM LacI (monomer), 1x imaging buffer with 20, 100 or ….

Take O1 operator (PBM): the binding signal (KD/WT-KD(Osym)) in data set [1] (relative ka 0.66, kd 8.84 ± 0.12 e-4 s-1) came to 6.1; in data set [2] (relative ka 0.72, kd 3.80 ± 0.06 e-4 s-1), 2.6; in data set [3] (relative ka 0.35, kd 22.79 ± 0.89 e-4 s-1), 28.4.

For O2 operator (PBM), the binding signal (KD/WT-KD(Osym)) in data set [1] (relative ka 0.42, kd 13.25 ± 0.35 e-4 s-1) came out at 14.1; in data set [2] (relative ka 0.58, kd 4.84 ± 0.10 e-4 s-1), 4.1; in data set [3] (relative ka 0.12, kd 36.53 ± 3.80 e-4 s-1), 140.

Take Osym 60 bp EMSA probe: the binding signal (fold KD increase, 50 to 200 mM NaCl) in data set [4] amounted to 10; in data set [5], 2.

In the case of Osym operator (PBM), the binding signal (KD/WT-KD(Osym)) is 1 in data set [1] (reference, kd 2.14 ± 0.03 e-4 s-1); 0.4 in data set [2] (relative ka 1.03, kd 0.89 ± 0.02 e-4 s-1); 3.6 in data set [3] (relative ka 0.89, kd 7.39 ± 0.13 e-4 s-1).
